Measurements: patent publication US20180044404A1

Biological target: CD200 on FBL cells transduced with CD200 (CD200+ FBL)
Assay: cell-based or functional assay

- accumulation of transduced T cells over multiple stimulations with irradiated CD200+ FBL: 3 fold
Substance: CD200R-9aas-CD28Cys (murine construct V) (from UniProt Q9ES57 26-229; P31041 142-150; P31041 151-218)
- lysis of CD200+ FBL cells (CFSE-based cytotoxicity assay): > 40%
